{"source": "paper PMC2275136", "binders": {"B1": {"name": "p21 promoter p53 consensus duplex (dsDNA)", "DNA 1": "TTGAACATGTCCCAACATGTTGA", "DNA 2": "TCAACATGTTGGGACATGTTCAA"}}, "target": "p53 (purified recombinant) (UniProt P04637 1-393)", "sequence (P04637 whole entry)": "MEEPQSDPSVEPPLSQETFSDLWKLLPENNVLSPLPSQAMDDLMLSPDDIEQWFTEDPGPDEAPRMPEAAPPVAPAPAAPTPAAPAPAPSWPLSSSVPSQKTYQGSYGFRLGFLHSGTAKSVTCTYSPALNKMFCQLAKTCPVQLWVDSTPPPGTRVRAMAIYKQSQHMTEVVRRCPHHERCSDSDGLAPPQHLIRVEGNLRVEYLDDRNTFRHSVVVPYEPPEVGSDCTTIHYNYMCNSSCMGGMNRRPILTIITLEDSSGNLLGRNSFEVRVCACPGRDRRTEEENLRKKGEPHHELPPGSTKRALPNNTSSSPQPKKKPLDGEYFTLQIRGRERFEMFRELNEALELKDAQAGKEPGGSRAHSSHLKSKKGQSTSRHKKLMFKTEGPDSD", "assay": "EMSA", "data": [{"binder": "B1", "values": [{"measurement": "binding result", "value": "binds"}]}]}
